Patent US20150072922A1, “RNASE 7 ANTIMICROBIAL PEPTIDES” (THE RESEARCH INSTITUTE AT NATIONWIDE CHILDREN'S HOSPITAL, priority 2012, published 2015)
Entries after “also recorded” stand apart in the source; their conditions may differ.

Experiments:
Escherichia coli (UTI89) = experiment: Antimicrobial kill (microdilution) assay, MIC/MBC by CFU count; type: cell-based
Method in brief: (§1)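 Bacteria (10^5 or 10^4 CFU) were exposed to graded RNase 7 or fragment concentrations in 0.1×PBS for 3 h at 37° C, then plated and counted as CFU after overnight growth at 37° C. MIC: lowest concentration inhibiting 90% of inoculum growth versus untreated bacteria. MBC: lowest concentration leaving […] of inoculum viable.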

[1] = tested on: Staphylococcus saprophyticus (ATCC 15305); experiment: as above; type: cell-based
Method in brief: as §1

[2] = tested on: Proteus mirabilis (ATCC 7002); experiment: as above; type: cell-based
Method in brief: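 P. mirabilis (ATCC 7002) grown in LB, 10^4 CFU incubated with graded RNase 7 or fragments in 0.1×PBS, 3 h, 37 °C; plated on MacConkey II agar overnight at 37 °C for CFU counts. MIC: lowest concentration inhibiting 90% vs untreated; MBC: lowest concentration leaving […] of inoculum viable.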

E. coli (UTI-89) = experiment: Live/Dead BacLight bacterial viability assay (confocal imaging); type: cell-based, Escherichia coli; conditions: 1 μM
Experimental: (§2) Bacterial viability assays were performed using a Live/Dead BacLight™ bacterial viability kit (Invitrogen). Uropathogenic E. coli (UTI-89) and S. Saprophyticus (ATCC 15305) were grown at 37° C. to the mid-log phase, centrifuged at 5000 rpm for 5 min, and resuspended in water with an OD=0.2. Bacteria were stained using a 1:1 mixture of a green-fluorescent STY®9 dye and a red-fluorescent propidium iodide dye as provided in the Live/Dead BacLight™ bacterial viability kit. SYTO®9 labels both live and dead bacteria. Propidium iodide penetrates only bacteria with damaged membranes. Consequently, live bacteria with intact membranes fluoresce green, while dead bacteria with damaged membranes fluoresce red. […]. 50 uL of stained uropathogenic bacteria was mixed with recombinant RNase 7 or RNase 7 fragments to achieve a final concentration of 3 uM and 1 uM. 10 uL of this mixture was added to poly-1-lysine coated microscope slides (Polysciences, Inc, Warrington, Pa., USA) and confocal images of the bacteria were obtained using a Zeiss LSM 700 confocal laser scanning microscope (Carl Zeiss LLC, Thornwood, N.Y., USA). SYTO®9 was excited using an argon laser (448-500 nm emission collected) and propidium iodide was excited using an orange diode (555-600 nm emission collected). Samples were imaged in triplicate.
(§3) For images of intact versus disrupted membranes of dying/dead cells, the Live/Dead BacLight™ bacterial viability kit (Invitrogen) was used. E. coli and S. saprophyticus were grown at 37° C. to the mid-log phase, centrifuged at 5000 rpm for 5 min, and resuspended in water to an OD600 of 0.2. Bacteria were incubated in a 1:1 mixture of Live/Dead BacLight™ bacterial viability assay. A bacterial aliquot of 50 μL was mixed with recombinant RNase 7 or recombinant fragments to achieve a final concentration of 1 μM. Ten microliters of this mixture was added to poly-1-lysine coated microscope slides (Polysciences, Inc, Warrington, Pa., USA), and images were obtained in triplicate using a Zeiss LSM 710 confocal laser scanning microscope (Carl Zeiss LLC, Thornwood, N.Y., USA).

[3] = tested on: S. Saprophyticus (ATCC 15305); experiment: as above; type: cell-based, Staphylococcus saprophyticus; conditions: 1 μM
Experimental: as §2, §3

E. coli = experiment: Urinary condition functional assay (OD600 growth curves); type: cell-based, Escherichia coli
Experimental: (§4) Because the urinary environment can have significant variation in salt concentration, ionic composition, and pH, an antimicrobial/bacteriostatic assay was performed to evaluate if pH, calcium, or ionic strength affects the activity of full-length RNase7 or its fragments. The highest activity fragment F:1-97 and lowest activity fragment F:72-128 for these experiments were chosen. Bacteria were inoculated in 1% peptone water and growth to log phase with OD600=0.5. Bacteria were diluted to 1:10 and 1 μl added to 100 μl of 1% peptone water with various pH, CaCl2 or NaCl concentrations that correspond to a physiologic range present in the urine in a 96-well flat bottom plate (Thermo Scientific, Nunc, Worcester, Mass.). To each well, 2 μM of RNase7 or its fragments were added.
(§5) Bacterial growth was monitored using an Absorbance microplate reader (BioTek Instruments, Winooski, Vt.) at a final volume of 110 μl. The turbidity of the culture was measured and recorded at t=0 and every 20 min thereafter for 10 hours using the absorbance at 600 nm (OD600). The values of OD600 values were plotted against times to generate growth curves.

S. saprophyticus = experiment: as above; type: cell-based, Staphylococcus saprophyticus
Experimental: as §4, §5

Proteus mirabilis = experiment: as above; type: cell-based
Experimental: as §4, §5

[4] = lowest concentration that inhibits the growth of 90% of the inoculation, 3 hours, 0.1×PBS
[5] = minimum bactericidal concentration, 3 hours, 0.1×PBS

B1: RNase7: recombinant full-length human Ribonuclease 7, amino acids 1-128 (SEQ ID NO: 1), N-terminal His tag (protein, listed as Homo sapiens)
chain: KPKGMTSSQWFKIQHMQPSPQACNSAMKNINKHTKRCKDLNTFLHEPFSSVAATCQTPKIACKNGDKNCHQSHGPVSLTMCKLTSGKYPNCRYKEKRQNKSYVVACKPPQKKDSQQFHLVPVHLDRVL
modifications: N-terminal His tag
MIC against E. coli (Escherichia coli (UTI89)): 0.26 µM | MIC for E. coli (Escherichia coli (UTI89); E. coli UTI89): 0.26 LM | E. coli MIC (Escherichia coli (UTI89); [4]): 0.26 µM | E. coli MBC (Escherichia coli (UTI89); [5]): 0.53 µM | MIC for S. saprophyticus [1]: 0.22 µM | S. saprophyticus MIC [1, 4]: 0.22 µM | S. saprophyticus MBC [1, 5]: .44 µM | MIC for P. mirabilis [2]: 0.88 µM | antimicrobial activity against P. mirabilis (in words) ([2]; MIC/MBC based, mostly compared to full-length RNase 7): MIC and MBC values that were identical | P. mirabilis MIC [2, 4]: .88 µM | P. mirabilis MBC [2, 5]: .88 µM | killing of E. coli in Bacterial Viability Assay (E. coli (UTI-89); 30 min): did not | killing of E. coli in Bacterial Viability Assay (E. coli (UTI-89); 3 hours): completely dead | killing of S. saprophyticus in Bacterial Viability Assay ([3]; 30 min): did not | killing of S. saprophyticus in Bacterial Viability Assay ([3]; 3 hours): completely dead | activity on E. coli growth at various pH levels (E. coli; 2 μM peptide, 1% peptone water, pH 5, 7, 9, OD600 for 10 hours, FIG. 3): pH 9 (dotted line) decreases full-length RNase 7 activity; also recorded: activity was optimal at pH 7 against E. coli | activity on E. coli growth at various NaCl titers (E. coli; 2 μM peptide, 50, 150, 500 mM NaCl, OD600 for 10 hours, FIG. 4): activity was not different at 50 and 150 mM NaCl | activity on E. coli growth at various CaCl2 titers (E. coli; 2 μM peptide, CaCl2 up to 16.25 mM, OD600 for 10 hours, FIG. 5): activity is inversely related to CaCl2 concentration; also recorded: significantly reduced full-length RNase 7 activity against all uropathogens | activity on S. saprophyticus growth at various NaCl titers (S. saprophyticus; 2 μM peptide, 50, 150, 500 mM NaCl, OD600 for 10 hours, FIG. 7): diminished in direct proportion to NaCl concentration; also recorded: activity inversely related to NaCl concentration | activity on S. saprophyticus growth at various CaCl2 titers (S. saprophyticus; 2 μM peptide, CaCl2 up to 16.25 mM, OD600 for 10 hours, FIG. 8): significantly reduced full-length RNase 7 activity against all uropathogens; also recorded: activity is inversely related to CaCl2 concentration | activity on S. saprophyticus growth at various pH levels (S. saprophyticus; 2 μM peptide, pH 5, 7, 9, OD600 for 10 hours, FIG. 6): activity is potent at all pH; also recorded: maintained high activity at pH 5 | activity on Proteus mirabilis growth at various CaCl2 titers (Proteus mirabilis; 2 μM peptide, 1.25, 7.5, 16.25 mM CaCl2, OD600 for 10 hours, FIG. 11): significantly reduced full-length RNase 7 activity against all uropathogens; also recorded: activity is significantly diminished at higher CaCl2 concentrations but relatively unaffected at 1.25 mM concentration | activity on Proteus mirabilis growth at various NaCl titers (Proteus mirabilis; 2 μM peptide, 50, 150, 500 mM NaCl, OD600 for 10 hours, FIG. 10): diminished significantly with additional of any NaCl titer; also recorded: activity markedly diminished at all salt concentrations | activity on Proteus mirabilis growth at various pH levels (Proteus mirabilis; 2 μM peptide, pH 5, 7, 9, OD600 for 10 hours, FIG. 9): maintained high activity at pH 5; also recorded: activity is potent at pH 5
